Reference: a protein production outcome set (Wang et al. 2014)

Experiment: label from the status in PepcDB records
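Also: failed if final PepcDB status was selected cloned or expressed and not failed if soluble or beyond.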

Row | Sequence | protein production
1 | MVKSDIIIVKNFHGVFCLNLVNEIFENKYKIIDILGKGGMSTVYLAKDIKLQKFWAIKEVSNNINDTSKLKVDLLAETNILKKLDHPALPRIVDIIKRDESLYIVMDFIDGVSLDKFIHKNGAINEKVVLDWAKQICDVLSYLHSQKPNPIIYRDMKPGNLMLTQNGKIKLIDFGIAREYKKEVSKDTTYIGTRGYAAPEQYGDCQSDARTDIYSFGVTLYHMLTGKGPNDPPFELKPVRELNSSLSEGIEHIIEKSTRQDPSLRYQNVDEMLYDIKNIHKLNSKYKKQLVKKYIKVAASACLFIFSVFLIISGVLGIKSDSANEYNNIIENGSKQNGDKAVEYFKQAVDKNSSNPKAYIKIIDTYLENGEYDQSIDFIETNLNNKQSELLKDNELLFKIGMAYFDDESYAKAYQYFNKIKGADISISEPLKYYKPVANALSKVDLQNKDKIVSSITQLEKYIDSRSDVDYKVESYITLAELYRDNPQIFPQNTDKEIGVLEKASSVSANKNNAILYGQLGQAYFDKASESKIEQDKYNFYLNKALDSYKNSIQMGSKISNTYCKLGLIYKYLGNTAESKNTFQKETQLFSDDYKGYMEMALLEYDSQQSAAPETRNYSEFVKYYNSTVSKKYNENDVDFMTLKQEYNDLKNQGVIK | failed
2 | MNAHRAQLISLARPVYFSLLASVAAGIINTVWVSRLGGPAVAAVAVATNTENVLLGVALVFASGTTVLVAHARGAQDPGAVRAAVRGGWALCAVVTPVVAGCGYLLREPLARLVLGGEGPALPLAVGYFAISLPGITVFYAQNLVDGILKGAGDTRTPMRLALLANGLILALDPLLIHRYGVRGAAVSTVLCRCAALGVGLLALRRNALLRGAAAVRPAEATGAALRRTLSTGLPMSADFTVRQGGALVLVAIVARLGVTAVAAYSIAYKVMYVATMAFYAVRQAASIHTAHTRGADRRASSRSAGAGSGGERRAIGRQAVVVSGTVGLLASALLCVLAPWVMRAFGAGPEVAHQGVLFLRCVGPYLLLMACFIALGGVFEGSGGAPVLLRVTLLGTAVQLPLAYALSGLGLPGICLALALAMVVQCAALLPGVRRQEDARDSLVRVA | failed
3 | MLKLTATKQTSQQRSLKMNTLTKLLAATMTLSAQAMAATPLTLDVYNADGNSFHVNATVVYGETEAMVVDTGFTKADALRIGAKVLDSGKTLKTIFISQADPDYYFGAEVLKQMFPQAEVIATPGVKAKIEQKLQGKLDFWAPKMGANAPVKPVLPTAYQGKTLEIDGQTIEIRGTEGELKHRPYLWIPANAAILGNVAVYGNVHLWMADAQTDSERKAWAEQLDEMAALKPKVVIPGHMTPGTAMDSSAITFSQKYLADFAKAKASSKNSAQLIEKMSKIYPDAGLPMALEIGAKVHTGEMKW | failed
4 | MNTFPWLTTIILLPIVAALFIPIIPDKDGKTVRWYSLAVGLVDFALIVYAFYSGFDLSEPGLQLVESYTWLPQIDLKWSVGADGLSMPLIILTGFITTLATMAAWPVTLKPKLFYFLMLLMYGGQIAVFAVQDILLFFLVWELELVPVYLILSIWGGKKRLYAATKFILYTAGGSLFILLAGLTLAFYGDVNTFDMSAIAAKDIPVNLQLLLYAGFLIAYGVKLPIFPLHTWLPDAHGEATAPAHMLLAGILLKMGGYALLRMNVGMLPDAHAVFAPVLVILGVVNIIYAAFTSFAQRNLKRKIAYSSISHMGFVLIGLASFTDLGMSGAMLQMISHGLIGASLFFMVGATYDRTHTLMLDEMGGIGQKMKKGFAMWTACSLASLALPGMSGFVAELMVFVGFATSDAYNLVFRTIVVVLMGVGVILTPIYLLSMLREMLYGPENEELVNHTNLVDVEPREVFIIGCLLVPIIGIGFYPKLITQIYDPTINQLVQTARRSVPSLVQQANLSPLEVTALRPPTIGF | failed
5 | MFVGREQELASLEEFYAKDGIGMTVIYGRRRIGKSTLITEFVKDKKTVFYTATKIGKARNLELFSKQVLDLFMPGIENISFNSIEAVFDFIDKNIANDKIVLVIDELPYWAEKDDSLLSILQKYIDTIWNDKNLKIILCGSALSFMENKVLSEKSPLFGRRDSQIKLESFNYLDSAKFVPNYSNEDKAICYGITGGVAKYLSMIDPKKNIDENIIRLFFRTDGYLYDETRNLLTQEFSDISLVNNIVEQIASGVNTLNTISGKINEKEPTVLYSLEKLISVGLIEKKKCITEEKNKKKTQYVLKDYMFKFWYEFIPKATSVIEMGQGALYYQKAVKPFLHSFMGSVFEEMCRYYTLNQGITGAYGCFVTSVGTWWGVENITDKNGYIRAQSADIDIVALSDIDKKAVIGECKFKNEKIDKGIYETLVRRGTLISNKYKISKYIFFSLSGYTDWFNSLSDEDVLLLTLDSLYR | failed
6 | STTTTTKKPHVLVIPFPQSGHMVPHLDLTHQILLRGATVTVLVTPKNSSYLDALRSLHSPEHFKTLILPFPSHPCIPSGVESLQQLPLEAIVHMFDALSRLHDPLVDFLSRQPPSDLPDAILGSSFLSPWINKVADAFSIKSISFLPINAHSISVMWAQEDRSFFNDLETATTESYGLVINSFYDLEPEFVETVKTRFLNHHRIWTVGPLLPFKAGVDRGGQSSIPPAKVSAWLDSCPEDNSVVYVGFGSQIRLTAEQTAALAAALEKSSVRFIWAVRDAAKKVNSSDNSVEEDVIPAGFEERVKEKGLVIRGWAPQTMILEHRAVGSYLTHLGWGSVLEGMVGGVMLLAWPMQADHFFNTTLIVDKLRAAVRVGENRDSVPDSDKLARILAESAREDLPERVTLMKLREKAMEAIKEGGSSYKNLDELVAEMCL | failed
7 | MSLRTQLIAVLIDDYSNPWFIDLIQSLSDVLTPKGYRLSVIDSLTSQAGTDPITSALSMRPDGIIIAQDIPDFTVPDSLPPFVIAGTRITQASTHDSVANDDFRGAEIATKHLIDLGHTHIAHLRVGSGAGLRRFESFEATMRAHGLEPLSNDYLGPAVEHAGYTETLALLKEHPEVTAIFSSNDITAIGALGAARELGLRVPEDLSIIGYDNTPLAQTRLINLTTIDDNSIGVGYNAALLLLSMLDPEAPHPEIMHTLQPSLIERGTCAPREGHHHHHH | not failed
8 | MMDGSTFYFVAWIGWIIVTFFMKKDPIRWKLGACILIFIICSPLHVTIASFVVSVNALLLCIISFIGITLYSVWKKLYSLLSALIIAMLYTSFHLLEIYDPIWIVVDRVFLLSSALVYASVLLHGDRILRLCSLYVGMLQAELLVTFIFSKLNFPYDYGSLAFFDIVAISTLFMAILFWIAKASVYMERFKRKTRKRKARVIHD | failed
9 | GMNSGKVAFIVTKNGKRICDVIDECSQRGSTILKAQGGYKQDDIQVVMCACNSKEMYQVRKSVKDTDPDSFIVVVESHEVHGEGFKMTNIGEAEN | failed
10 | MPSMSPIDKSWSTCPYGFLDGTHQELRRIFHLWRCKKYRSQFTEEKKATYEEKLAASELFKDKKALYPSSVSQPFKGDYVEITKNPKYQKLNSLVEDKVLLADVVSKINRANGKGTPRIFLLTKKCLVLADQKTGQVKASVPLPDLSSVFVSTQNDGFFALKLREGATSAAKGDYLLSSDRLIEIITKLYCTGAASAERNQIKIDISDEFLVQFKQDKVCVKFIQGTPKNSNSVSCKRKNNRLLEVSVPSP | failed
11 | MPAIGSAPDGSRVSFMPKAWLLLALLLLLSLPARAEEWPALQWSQGTPASGPALQALEEYAFVPRDDESRQGIRTDALLVIRDGRLLYERYAGATGPQTPHLAWSASKSLLAVLLGVAFGEGRFQLQDPAAKFYPPLEAHPDITLADLLHWASGLDWQEDYEYAPLNSSVVAMLYTRGHRDMAAFTVQQAASGPPGQVFRYSSGDSNLLAASLRGMVGEGQYADYPWRALFEPLGITQAVWERDAAGTFVASSYLYLTARDLARIGLLMQRDGRWRDRQLLPKAWVEFCRTPFRGYRANQDVAVAGGHWWLNREVDGAPRPWPDAPADTYAALGHWGQALYVLPAQRLVIVRYGDDRDGSYQHNELLKRVLAAFATPEQP | failed
12 | MCAMSQEHQNPTPLPQVSDMAPVNPPKNQRYPRAVDLSLIECHCCGLLNQVDSDHSEQAHSRHCIRCHSPLHVRKPRSLDRTLALVIAASILYIPANVLPMTMTDSLLGRQQDTIMSGVIYFWQNSDYLVAVVIFMASIFIPMLKLIILCFLLIAVRMQESSKWHFLPEHCALLYRIVEFVGRWSMIDVFVVALLTALIQIQSLATILAGPGAVAFGAVVVLTMFASLSFDPRIIWDNYYKAQAKQHDPLQTIDNTSSISVEQ | failed
13 | MTDNKIKNEDGKLELIINAAQKRFAHYGLCKTTMNEIASDVGMGKASLYYYFPDKETLFEAVIKKEQNVFFDEMDKILNSGIDATALLKKYVKLRSLHFRHLLNLSKLRSDFFHNTKPVFAKAFESFKQKEVEIVAGIIQYGITTKEFKRGNKHENAEFLVHLLLGVRMVKLKYKEINDFDESDYEDLDKNMCKVAGMFLKEIQTEVASR | not failed
14 | MVFVWFIVAAIVTILTAIKLSNYADTIGEKSTLGGMLVGTIFLAGATSLPEITTTVSAIVLNNPDLAVGNVLGSNMFNLLILATLDLYFRRAQLFRGADTSHFFTASIGLLLAMVTLIAITLRLDVTLLGIGIDMLVLIVVYAFGMKLLSAVRNDPVPESQTIDQEDNRPVKKDVSLRHAMIGFAISAIVIMGAGTLLTVTGDEIAVVTGLGSSFVGSFLIAATTSLPEGVSVFVALRLKNINLALGSVLGSNLFNFLILGVSDILYRPGSIIAAISPVHQLTAAAVGILCLMTLYALLRPAEQSKRMYLMPSLVLIVFYFFSSYLIFVQ | failed
15 | MPSSSASLIPSLRQASRQMVRELGFMQATLAATDYPPSAVHALLEIGQGNALTAGDLVTLLGLEKSSVSRLVRKLVDAGEISEQAHDQDARSKKLQLSARGRQTLAGIDRFAQAQVAAALAHLSPAQQRSACAGIADYARALRAVRLGDVPEPPERCSIARGYRPGVIGRIAEMHARYYADLAGFGQPFESLVARDMAELMGRLHNPRNEVWVALQGERIVGSIAIDGEGEGGEALLRCFILDEAARGQGLGRRLLAEALGFCDQWGFAATRLWTFKGLDAARALYEEQGFVLVQEQEGEQWGAPVTEQCFVRARVAQRDTIR | failed
16 | MENMENDENIVVGPKPFYPIEEGSAGTQLRKYMERYAKLGAIAFTNAVTGVDYSYAEYLEKSCCLGKALQNYGLVVDGRIALCSENCEEFFIPVIAGLFIGVGVAPTNEIYTLRELVHSLGISKPTIVFSSKKGLDKVITVQKTVTTIKTIVILDSKVDYRGYQCLDTFIKRNTPPGFQASSFKTVEVDRKEQVALIMNSSGSTGLPKGVQLTHENTVTRFSHARDPIYGNQVSPGTAVLTVVPFHHGFGMFTTLGYLICGFRVVMLTKFDEETFLKTLQDYKCTSVILVPTLFAILNKSELLNKYDLSNLVEIASGGAPLSKEVGEAVARRFNLPGVRQGYGLTETTSAIIITPEGDDKPGASGKVVPLFKAKVIDLDTKKSLGPNRRGEVCVKGPMLMKGYVNNPEATKELIDEEGWLHTGDIGYYDEEKHFFIVDRLKSLIKYKGYQVPPAELESVLLQHPSIFDAGVAGVPDPVAGELPGAVVVLESGKNMTEKEVMDYVASQVSNAKRLRGGVRFVDEVPKGLTGKIDGRAIREILKKPVAKM | not failed
17 | MNQSPSILRKTRKGEYMAFADLAAEKTQGVDYDFLVLDRASAVAIVAPHGGWIEHGTSELATAVAGDDFSLYLFEGLKPKRPHSELHIPSEYFDENRCVDLVSRARIVIGMHGRADGDDPETIWLGGLGKELRDAIAAALEAAGFKAITSGHRLPGEHKNNICNRGINQAGVQLEPCRWSNRCLSATETHSTSATTAIISRLSIAA | failed
18 | MAKYFDIDDILIEEEFVPVLFHKTANGVTIDPSAETNCVSLLIPSAKAEQGSKVELPFWLAHELHLRQAVTINLPPCFDQKTRLEVQADAAYVDLRSRCPYFYEFGCKIEPLVTDRTLGILLSTAFKIRYKEALTKVYTAAHITASKYLSFLTKEETNLYEAAHLSMTAFKKWRTGGPRFQRASILGRKRKDSN | failed
19 | MTSHTLTQGGRTTATIALLLAMLLWSSSFIAMKIALTGFDPMVMIFGRMAIASVIFIAVWRRNFSGVRYRAGDWKLLGFMTMCEPCLYFVFEAYALEYTSASQAGMIVAMMPLSVAVAARFVLKEHMARSAWAGFCLAIAGVVWLSLGGQVTENAPNPMLGNALEVCAMLTATGYVISAKRLSSTYPPLFITAVQSLAGFVFFLPVLALPGVTLPTSLPLTPTLAVLYLGVCITLGAYGLYNYGVSRLPAGQAASYINLIPVLTLIMGRVVLGDELSPSQYLASLLVLAGVVLSQRRAAA | failed
